The results in this text go back to patent US20220047729A1.

In the first assay the target is recombinant hPD-L1 hIgG1 Fc-fusion protein (R&D Systems) (human) (UniProt Q9NZQ7). In words: flow cytometry, control HEK 293 cells, one dose of hPD-L1 Fc fusion. (In flow cytometry, cells or beads pass a laser one at a time.)
UniProt Q9NZQ7, sequence (Q9NZQ7 19-239 limits assumed): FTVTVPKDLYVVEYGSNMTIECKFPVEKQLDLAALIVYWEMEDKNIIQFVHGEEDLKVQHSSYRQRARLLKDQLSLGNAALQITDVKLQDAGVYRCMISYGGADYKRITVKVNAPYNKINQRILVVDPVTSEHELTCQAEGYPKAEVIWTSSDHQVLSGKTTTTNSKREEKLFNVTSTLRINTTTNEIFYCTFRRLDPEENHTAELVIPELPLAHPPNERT
As to Control (row of Table 2), the average binding normalized to wild type (AVE-hPD-L1) (relative to wild type) was 0.0144.

For another assay, the target named is recombinant hPD-L2 hIgG1 Fc-fusion protein (R&D Systems) (human) (UniProt Q9BQ51). The assay is described as follows: flow cytometry, HEK 293 cells displaying the PD-1 construct, one dose of hPD-L2 Fc fusion, percent of PD-1-positive cells bound.
UniProt Q9BQ51, sequence (Q9BQ51 20-219 limits assumed): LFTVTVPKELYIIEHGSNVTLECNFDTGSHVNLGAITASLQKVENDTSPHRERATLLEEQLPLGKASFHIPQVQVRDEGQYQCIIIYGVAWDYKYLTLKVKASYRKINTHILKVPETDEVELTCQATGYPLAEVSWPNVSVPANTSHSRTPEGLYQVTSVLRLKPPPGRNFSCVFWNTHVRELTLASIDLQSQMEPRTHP
With “human PD-1 mutant T76S (hPD-1 Type I mCherry, on HEK 293 cells) (from UniProt Q15116 25-168) (receptor)”, the average binding normalized to wild type (AVE-hPD-L2) (relative to wild type) stood at 0.954.

For “human PD-1 mutant I134N (hPD-1 Type I mCherry, on HEK 293 cells) (from UniProt Q15116 25-168) (receptor)”, the average binding normalized to wild type (AVE-hPD-L2) (relative to wild type) was found to be 0.0534.

Take “human PD-1 mutant S73K (hPD-1 Type I mCherry, on HEK 293 cells) (from UniProt Q15116 25-168) (receptor)”: the average binding normalized to wild type (AVE-hPD-L2) (relative to wild type) came to 1.

Consider “human PD-1 mutant I134D (hPD-1 Type I mCherry, on HEK 293 cells) (from UniProt Q15116 25-168) (receptor)”, for which the average binding normalized to wild type (AVE-hPD-L2) (relative to wild type) was 0.0105.

Regarding “human PD-1 mutant G124M (hPD-1 Type I mCherry, on HEK 293 cells) (from UniProt Q15116 25-168) (receptor)”, the average binding normalized to wild type (AVE-hPD-L2) (relative to wild type) amounted to 0.705.

As to “human PD-1 mutant S73R (hPD-1 Type I mCherry, on HEK 293 cells) (from UniProt Q15116 25-168) (receptor)”, the average binding normalized to wild type (AVE-hPD-L2) (relative to wild type) came to 1.11.

Take “human PD-1 mutant K78R (hPD-1 Type I mCherry, on HEK 293 cells) (from UniProt Q15116 25-168) (receptor)”: the average binding normalized to wild type (AVE-hPD-L2) (relative to wild type) was found to be 0.125.

Take “human PD-1 mutant T76N (hPD-1 Type I mCherry, on HEK 293 cells) (from UniProt Q15116 25-168) (receptor)”: the average binding normalized to wild type (AVE-hPD-L2) (relative to wild type) came to 0.998.

“human PD-1 mutant Q75N (hPD-1 Type I mCherry, on HEK 293 cells) (from UniProt Q15116 25-168) (receptor)”: the average binding normalized to wild type (AVE-hPD-L2) (relative to wild type) came to 1.13.

Consider “human PD-1 mutant I134T (hPD-1 Type I mCherry, on HEK 293 cells) (from UniProt Q15116 25-168) (receptor)”, for which the average binding normalized to wild type (AVE-hPD-L2) (relative to wild type) came to 0.307.

In the case of “human PD-1 mutant E136N (hPD-1 Type I mCherry, on HEK 293 cells) (from UniProt Q15116 25-168) (receptor)”, the average binding normalized to wild type (AVE-hPD-L2) (relative to wild type) was 0.82.

On to “human PD-1 mutant Y68Q (hPD-1 Type I mCherry, on HEK 293 cells) (from UniProt Q15116 25-168) (receptor)”, for which the average binding normalized to wild type (AVE-hPD-L2) (relative to wild type) came to 0.202.

As to “human PD-1 mutant E136Q (hPD-1 Type I mCherry, on HEK 293 cells) (from UniProt Q15116 25-168) (receptor)”, the average binding normalized to wild type (AVE-hPD-L2) (relative to wild type) was found to be 0.967.

For the substance “human PD-1 mutant Y68K (hPD-1 Type I mCherry, on HEK 293 cells) (from UniProt Q15116 25-168) (receptor)”, the average binding normalized to wild type (AVE-hPD-L2) (relative to wild type) is 0.0223.

As to “human PD-1 mutant D77E (hPD-1 Type I mCherry, on HEK 293 cells) (from UniProt Q15116 25-168) (receptor)”, the average binding normalized to wild type (AVE-hPD-L2) (relative to wild type) was found to be 1.13.

With “human PD-1 mutant N66Q (hPD-1 Type I mCherry, on HEK 293 cells) (from UniProt Q15116 25-168) (receptor)”, the average binding normalized to wild type (AVE-hPD-L2) (relative to wild type) is 0.0105.

As for “human PD-1 mutant Y68N (hPD-1 Type I mCherry, on HEK 293 cells) (from UniProt Q15116 25-168) (receptor)”, the average binding normalized to wild type (AVE-hPD-L2) (relative to wild type) stood at 0.108.

Regarding “human PD-1 mutant T76D (hPD-1 Type I mCherry, on HEK 293 cells) (from UniProt Q15116 25-168) (receptor)”, the average binding normalized to wild type (AVE-hPD-L2) (relative to wild type) is 0.205.

With “human PD-1 mutant E84Y (hPD-1 Type I mCherry, on HEK 293 cells) (from UniProt Q15116 25-168) (receptor)”, the average binding normalized to wild type (AVE-hPD-L2) (relative to wild type) is 0.999.

As to “human PD-1 mutant I134Q (hPD-1 Type I mCherry, on HEK 293 cells) (from UniProt Q15116 25-168) (receptor)”, the average binding normalized to wild type (AVE-hPD-L2) (relative to wild type) is 0.0252.

Consider “human PD-1 mutant I126V (hPD-1 Type I mCherry, on HEK 293 cells) (from UniProt Q15116 25-168) (receptor)”, for which the average binding normalized to wild type (AVE-hPD-L2) (relative to wild type) was 0.711.

On to “human PD-1 mutant L128W (hPD-1 Type I mCherry, on HEK 293 cells) (from UniProt Q15116 25-168) (receptor)”, for which the average binding normalized to wild type (AVE-hPD-L2) (relative to wild type) amounted to 1.03.

With “human PD-1 mutant I134F (hPD-1 Type I mCherry, on HEK 293 cells) (from UniProt Q15116 25-168) (receptor)”, the average binding normalized to wild type (AVE-hPD-L2) (relative to wild type) was 1.11.

“human PD-1 mutant L128V (hPD-1 Type I mCherry, on HEK 293 cells) (from UniProt Q15116 25-168) (receptor)”: the average binding normalized to wild type (AVE-hPD-L2) (relative to wild type) was 1.03.

Regarding “human PD-1 mutant K131H (hPD-1 Type I mCherry, on HEK 293 cells) (from UniProt Q15116 25-168) (receptor)”, the average binding normalized to wild type (AVE-hPD-L2) (relative to wild type) amounted to 1.58.

Consider “human PD-1 mutant N66E (hPD-1 Type I mCherry, on HEK 293 cells) (from UniProt Q15116 25-168) (receptor)”, for which the average binding normalized to wild type (AVE-hPD-L2) (relative to wild type) is 0.00438.

Regarding “human PD-1 mutant T76Q (hPD-1 Type I mCherry, on HEK 293 cells) (from UniProt Q15116 25-168) (receptor)”, the average binding normalized to wild type (AVE-hPD-L2) (relative to wild type) came to 0.98.

In the case of “human PD-1 mutant Y68R (hPD-1 Type I mCherry, on HEK 293 cells) (from UniProt Q15116 25-168) (receptor)”, the average binding normalized to wild type (AVE-hPD-L2) (relative to wild type) turned out to be 0.0334.

For the substance “human PD-1 mutant T76E (hPD-1 Type I mCherry, on HEK 293 cells) (from UniProt Q15116 25-168) (receptor)”, the average binding normalized to wild type (AVE-hPD-L2) (relative to wild type) amounted to 0.642.

As for “human PD-1 mutant T76Y (hPD-1 Type I mCherry, on HEK 293 cells) (from UniProt Q15116 25-168) (receptor)”, the average binding normalized to wild type (AVE-hPD-L2) (relative to wild type) is 1.11.

Turning to “human PD-1 mutant G124Y (hPD-1 Type I mCherry, on HEK 293 cells) (from UniProt Q15116 25-168) (receptor)”, the average binding normalized to wild type (AVE-hPD-L2) (relative to wild type) was found to be 0.557.

Take “human PD-1 mutant G124V (hPD-1 Type I mCherry, on HEK 293 cells) (from UniProt Q15116 25-168) (receptor)”: the average binding normalized to wild type (AVE-hPD-L2) (relative to wild type) is 1.16.

A further assay has the same target. In words: flow cytometry, control HEK 293 cells, one dose of hPD-L2 Fc fusion.
For the substance Control (row of Table 2), the average binding normalized to wild type (AVE-hPD-L2) (relative to wild type) is 0.00648.
